Experiments:
Assay in all cases: cleavage_in_vitro
[1] = test system: T1, OMNI-92 (metagenomic, unknown); details: TXTL; PAM NNNNRYGA
T1 sequence: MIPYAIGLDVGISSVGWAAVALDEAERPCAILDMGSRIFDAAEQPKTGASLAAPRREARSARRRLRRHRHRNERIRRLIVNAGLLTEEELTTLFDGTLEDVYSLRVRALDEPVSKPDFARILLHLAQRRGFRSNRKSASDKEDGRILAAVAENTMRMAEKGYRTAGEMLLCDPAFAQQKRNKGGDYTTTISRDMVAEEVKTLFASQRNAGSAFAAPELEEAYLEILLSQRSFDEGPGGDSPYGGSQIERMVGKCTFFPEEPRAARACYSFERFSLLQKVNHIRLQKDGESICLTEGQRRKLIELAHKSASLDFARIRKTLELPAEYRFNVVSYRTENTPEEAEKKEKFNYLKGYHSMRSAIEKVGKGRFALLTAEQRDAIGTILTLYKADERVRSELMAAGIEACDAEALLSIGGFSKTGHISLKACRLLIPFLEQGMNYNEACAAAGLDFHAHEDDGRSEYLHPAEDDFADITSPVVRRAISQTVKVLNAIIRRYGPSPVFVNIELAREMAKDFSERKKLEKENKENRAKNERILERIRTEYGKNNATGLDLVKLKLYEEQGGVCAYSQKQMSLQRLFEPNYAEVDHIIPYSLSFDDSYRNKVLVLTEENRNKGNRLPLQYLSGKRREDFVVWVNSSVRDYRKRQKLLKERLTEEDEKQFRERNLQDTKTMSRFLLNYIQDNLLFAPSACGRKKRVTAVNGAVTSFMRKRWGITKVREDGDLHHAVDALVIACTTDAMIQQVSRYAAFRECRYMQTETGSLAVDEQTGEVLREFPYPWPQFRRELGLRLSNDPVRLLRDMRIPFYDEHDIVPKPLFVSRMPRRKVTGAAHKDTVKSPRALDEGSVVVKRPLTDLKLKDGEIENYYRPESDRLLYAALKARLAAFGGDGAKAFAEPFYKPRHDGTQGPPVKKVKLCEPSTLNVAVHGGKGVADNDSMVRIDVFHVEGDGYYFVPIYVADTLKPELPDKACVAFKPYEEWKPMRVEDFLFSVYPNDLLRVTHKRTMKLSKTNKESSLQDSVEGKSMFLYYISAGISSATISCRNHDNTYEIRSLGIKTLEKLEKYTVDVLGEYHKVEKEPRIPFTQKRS

[2] = test system: T2, OMNI-136 (metagenomic, unknown); details: TXTL; PAM NNDRCNAA
T2 sequence: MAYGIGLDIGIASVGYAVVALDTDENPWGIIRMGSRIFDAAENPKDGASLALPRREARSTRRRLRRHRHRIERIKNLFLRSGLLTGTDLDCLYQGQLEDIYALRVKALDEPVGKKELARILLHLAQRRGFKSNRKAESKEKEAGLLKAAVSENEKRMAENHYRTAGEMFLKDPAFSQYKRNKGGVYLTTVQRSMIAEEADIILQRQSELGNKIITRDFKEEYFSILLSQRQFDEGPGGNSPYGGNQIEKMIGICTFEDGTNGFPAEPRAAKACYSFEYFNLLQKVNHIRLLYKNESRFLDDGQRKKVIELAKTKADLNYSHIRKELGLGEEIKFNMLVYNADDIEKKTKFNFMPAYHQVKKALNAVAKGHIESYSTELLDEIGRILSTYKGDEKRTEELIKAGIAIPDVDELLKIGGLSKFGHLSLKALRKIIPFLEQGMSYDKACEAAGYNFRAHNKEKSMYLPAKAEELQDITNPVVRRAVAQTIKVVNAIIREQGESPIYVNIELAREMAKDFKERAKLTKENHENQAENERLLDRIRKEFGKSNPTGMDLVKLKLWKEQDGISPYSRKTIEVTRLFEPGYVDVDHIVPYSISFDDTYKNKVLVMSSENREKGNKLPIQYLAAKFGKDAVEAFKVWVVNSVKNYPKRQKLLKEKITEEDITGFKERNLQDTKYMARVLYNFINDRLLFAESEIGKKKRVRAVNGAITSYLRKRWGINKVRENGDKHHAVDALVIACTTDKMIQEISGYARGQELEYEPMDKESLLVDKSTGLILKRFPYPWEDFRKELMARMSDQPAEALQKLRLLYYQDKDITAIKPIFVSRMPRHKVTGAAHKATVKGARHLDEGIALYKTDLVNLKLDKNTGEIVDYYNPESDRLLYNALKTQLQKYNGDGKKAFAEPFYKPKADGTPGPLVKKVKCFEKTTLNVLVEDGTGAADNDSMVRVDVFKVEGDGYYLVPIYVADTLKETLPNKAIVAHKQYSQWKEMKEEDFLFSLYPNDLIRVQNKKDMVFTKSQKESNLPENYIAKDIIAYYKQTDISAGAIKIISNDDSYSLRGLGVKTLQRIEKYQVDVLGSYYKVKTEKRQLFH

[3] = test system: T3, OMNI-133 (metagenomic, unknown); details: TXTL; PAM NNTAMCNN
T3 sequence: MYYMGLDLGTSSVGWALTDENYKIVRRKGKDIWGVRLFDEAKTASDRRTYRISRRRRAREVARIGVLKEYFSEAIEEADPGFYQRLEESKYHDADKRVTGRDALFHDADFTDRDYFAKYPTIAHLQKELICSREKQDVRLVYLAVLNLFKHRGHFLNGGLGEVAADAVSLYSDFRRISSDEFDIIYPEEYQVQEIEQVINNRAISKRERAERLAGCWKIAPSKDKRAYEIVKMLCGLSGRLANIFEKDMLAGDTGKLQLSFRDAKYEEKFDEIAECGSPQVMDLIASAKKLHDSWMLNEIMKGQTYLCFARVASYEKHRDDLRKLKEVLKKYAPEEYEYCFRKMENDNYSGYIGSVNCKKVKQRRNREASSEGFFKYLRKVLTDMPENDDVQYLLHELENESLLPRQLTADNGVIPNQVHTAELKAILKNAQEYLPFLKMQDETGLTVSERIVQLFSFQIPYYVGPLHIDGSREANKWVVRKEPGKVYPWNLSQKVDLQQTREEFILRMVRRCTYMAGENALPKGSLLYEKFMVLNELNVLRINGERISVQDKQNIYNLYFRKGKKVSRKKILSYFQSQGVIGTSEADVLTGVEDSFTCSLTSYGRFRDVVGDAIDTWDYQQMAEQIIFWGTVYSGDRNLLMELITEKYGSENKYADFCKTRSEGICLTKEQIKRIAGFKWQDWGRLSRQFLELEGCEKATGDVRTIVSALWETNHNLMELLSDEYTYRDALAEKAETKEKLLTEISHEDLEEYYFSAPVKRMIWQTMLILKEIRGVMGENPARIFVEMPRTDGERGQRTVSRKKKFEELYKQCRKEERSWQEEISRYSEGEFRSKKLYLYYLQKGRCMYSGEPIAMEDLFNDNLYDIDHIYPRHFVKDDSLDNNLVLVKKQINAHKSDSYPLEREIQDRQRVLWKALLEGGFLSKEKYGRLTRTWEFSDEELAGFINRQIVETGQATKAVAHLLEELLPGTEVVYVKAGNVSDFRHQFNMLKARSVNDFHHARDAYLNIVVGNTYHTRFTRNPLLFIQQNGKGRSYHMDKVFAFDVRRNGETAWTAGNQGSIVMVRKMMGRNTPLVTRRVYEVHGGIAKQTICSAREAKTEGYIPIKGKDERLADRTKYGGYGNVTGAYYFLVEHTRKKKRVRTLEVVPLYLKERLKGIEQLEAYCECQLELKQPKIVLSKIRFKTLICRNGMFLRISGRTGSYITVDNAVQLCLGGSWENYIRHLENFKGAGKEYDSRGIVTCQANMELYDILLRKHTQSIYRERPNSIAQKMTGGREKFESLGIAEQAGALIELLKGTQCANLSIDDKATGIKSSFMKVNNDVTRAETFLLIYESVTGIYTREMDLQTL

[4] = test system: T4, OMNI-135 (metagenomic, unknown); details: TXTL; PAM NNWACCNN
T4 sequence: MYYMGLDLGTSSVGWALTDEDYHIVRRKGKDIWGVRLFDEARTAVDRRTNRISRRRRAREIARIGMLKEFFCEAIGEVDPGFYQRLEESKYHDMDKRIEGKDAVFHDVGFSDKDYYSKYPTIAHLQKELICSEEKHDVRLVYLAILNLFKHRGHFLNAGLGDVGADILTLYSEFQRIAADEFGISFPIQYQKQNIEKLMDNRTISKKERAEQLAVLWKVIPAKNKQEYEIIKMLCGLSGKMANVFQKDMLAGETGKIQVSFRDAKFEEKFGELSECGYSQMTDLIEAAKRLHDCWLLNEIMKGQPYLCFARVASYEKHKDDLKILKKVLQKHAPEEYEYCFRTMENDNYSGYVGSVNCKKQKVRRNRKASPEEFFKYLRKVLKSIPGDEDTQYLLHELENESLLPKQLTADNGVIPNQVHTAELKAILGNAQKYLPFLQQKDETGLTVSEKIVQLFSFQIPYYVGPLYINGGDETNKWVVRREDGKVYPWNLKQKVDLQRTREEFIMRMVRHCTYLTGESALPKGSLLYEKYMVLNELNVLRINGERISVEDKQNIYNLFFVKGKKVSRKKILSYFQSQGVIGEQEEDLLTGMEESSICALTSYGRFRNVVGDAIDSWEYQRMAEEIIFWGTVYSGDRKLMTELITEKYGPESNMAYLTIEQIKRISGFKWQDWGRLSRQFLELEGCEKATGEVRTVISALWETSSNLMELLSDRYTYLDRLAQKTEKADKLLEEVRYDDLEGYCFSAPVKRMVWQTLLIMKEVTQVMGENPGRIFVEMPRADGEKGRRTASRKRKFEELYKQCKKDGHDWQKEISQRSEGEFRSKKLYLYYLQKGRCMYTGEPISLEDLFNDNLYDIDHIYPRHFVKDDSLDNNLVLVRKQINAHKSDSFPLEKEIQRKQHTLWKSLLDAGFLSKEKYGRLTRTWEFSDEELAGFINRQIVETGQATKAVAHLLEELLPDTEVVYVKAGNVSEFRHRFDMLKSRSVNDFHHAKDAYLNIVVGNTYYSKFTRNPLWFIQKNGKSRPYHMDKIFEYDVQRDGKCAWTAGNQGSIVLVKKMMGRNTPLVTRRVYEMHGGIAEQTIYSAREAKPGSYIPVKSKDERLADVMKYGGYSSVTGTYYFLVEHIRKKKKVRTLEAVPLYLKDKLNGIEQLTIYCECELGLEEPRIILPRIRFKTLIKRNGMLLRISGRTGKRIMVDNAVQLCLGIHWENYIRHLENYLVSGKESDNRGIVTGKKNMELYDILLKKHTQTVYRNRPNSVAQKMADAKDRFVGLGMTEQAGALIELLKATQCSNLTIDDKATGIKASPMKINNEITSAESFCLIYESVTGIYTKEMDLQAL

## GGAAGAGCAGAGCCUUGGUCUCGUUGUAGUUCCCUGAUCGUGAAAACGAUCAGGUUGCUACAAUAAGGUAGUACACCGAAGAGCUCUAACGCCCCGUUUUGCGGGGCGUUAUCUCUUUUUUU / GGAAGAGCAGAGCCTTGGTCTCNNNNNNNN / NNNNNNNNGAGACCAAGGCTCTGCTCTTCC [T2 sgRNA 3 V1 ; T2 protospacer + 8N PAM library (pbPOS T2)]
[1]
  activity (1-depletion score): 0.97

## GGAAGAGCAGAGCCUUGGUCUCGUUGUAGUUCCCUGUUAAUGAAAAUUUUCGGGUUACUAUGAUAAGGUAGAACACCGAAAAGCUCUAACGCCUUGCCAUUUGGUGAGGCGUUAUCUUUUUU / GGAAGAGCAGAGCCTTGGTCTCNNNNNNNN / NNNNNNNNGAGACCAAGGCTCTGCTCTTCC [T2 sgRNA 36 V1 ; T2 protospacer + 8N PAM library (pbPOS T2)]
[2]
  activity (1-depletion score): 0.97

## GGAAGAGCAGAGCCUUGGUCUCGUUUGAGAACCUUGUAAGAAAUUACAAGGUGAGUGCAAAUAAGGAUUUUUCCGAAAUCACUCCUCAUAAGAGUCCGCAUUGUGCGGUGAAAAGACUCUGCCAAGAGUCUUUUUU / GGAAGAGCAGAGCCTTGGTCTCNNNNNNNN / NNNNNNNNGAGACCAAGGCTCTGCTCTTCC [T2 sgRNA 33 V1 ; T2 protospacer + 8N PAM library (pbPOS T2)]
[3]
  activity (1-depletion score): 0.95

## GGAAGAGCAGAGCCUUGGUCUCGUUUGAGAACCUUGUAAGAAAUUACAAGGUGAGUGCAAAUAAGGAUUUUUCCGAAAUCACUCCUCAUGGAUGUCCGCAUUGUGCGGUGAAAAAGACUCUGUUUAGAGUCUUUUUU / GGAAGAGCAGAGCCTTGGTCTCNNNNNNNN / NNNNNNNNGAGACCAAGGCTCTGCTCTTCC [T2 sgRNA 35 V1 ; T2 protospacer + 8N PAM library (pbPOS T2)]
[4]
  activity (1-depletion score): 0.95
